# Literature values in publication PMC4520744.
# Target: HBV capsid protein (Hepatitis B virus) (UniProt P03149)
substance,measurement,value
HBV capsid protein (from UniProt P03149),Kd,3000 µM
